{
  "source": "patent US20230071019A1",
  "about": "(RESEARCH FOUNDATION FOR THE STATE UNIVERSITY OF NEW YORK, published 2023)",
  "binders": {"B1": {"name": "T3B4 (VHH)", "VHH": "QVQLQESGGGLVQAGDSLRLSCTASGRTFSRYTMGWFRQAPGKEREFVAAISTGGLRQYFGDSVRGRCTISRDNAKNTVYLQMDSLKPEDTAVYYCAATGNEYHWGRGTQVTVSS", "notes": "tested as phage media; also called DT3B4"}, "B2": {"name": "T3B3 (VHH)", "VHH": "EVQLVESGGGLVQAGGSLRLSCALSGGTLRSYTMGWIRQAPGKEREFVAGNRWSGGRTYYADSVKGRFTISGDNAENTVYLQMNSLKPEDTAVYYCTADVTEYGEDSSAYWGRGTQVTVSS", "notes": "tested as phage media; also called DT3B3"}, "B3": {"name": "Anti-Exatecan sdAb TF7 clone (VHH)", "VHH": "QVQLQESGGGLAQPGGSLRVSCATSGFTFSSNYYISWVRQAPGRGLEWVSAINTGDGSTYYAHSVKGRFTISRDNAKNTLYLQMNSLKPEDTALYYCARSSLEGRIEKPYDYWGQGTQVTVSS", "notes": "Llama single domain antibody; also called anti-camptothecin sdAb (TF7)"}, "B4": {"name": "T3B5 (VHH)", "VHH": "QVQLVQSGGGLVQPGGSLRLSCTASGRTFSRYTMGWFRQAPGKEREFVAAISTGGLRQYFGDSVRGRCTISRDNAKSTVYLQMDSLKPEDTAVYYCAANWGTSYYWGQGTQVTVSS", "notes": "tested as phage media; also called DT3B5"}, "B5": {"name": "Anti-DM1/DM4 sdAb DF4B12 clone (VHH)", "VHH": "EVQLVESGGGLVQPGGSLRLSCAASGSIFGISYMGWYRQAPGKQREPVALITSGGDTAYGDSVKGRFTISRDNAKNTVYLQMNSLTPEDTSTFYCAAGFYRSDSPNRYDYWGQGTQVTVSS", "notes": "Purified sdAb; tag not described"}, "B6": {"name": "Anti-DM1/DM4 sdAb DF3A4 clone (VHH)", "VHH": "B5 VHH with E1Q, V5Q, D56S, A58Y, G60A, F67V, N76K, T86R, F93Y", "notes": "as for B5"}, "B7": {"name": "Anti-DM1/DM4 sdAb DF3A2 clone (VHH)", "VHH": "B5 VHH with E1Q, V5Q, S27G, T68A, T86K, E88D, T92A, F93Y", "notes": "also called sdAb 3A2"}, "B8": {"name": "Anti-Calicheamicin sdAb CG4 clone (VHH)", "VHH": "QVQLQESGGGLVQAGGSLRLSCAASGRTISGYAMGWFRQAPGKERDLVAAISRSGTSTYYADSVKGRFTISRDNAKNTVYLQMNSLKPEDTAVYYCNAPGGIWGQGTQVTVSS"}, "B9": {"name": "T3H3 (VHH)", "VHH": "EVQLVESGGGLVQPGGSLRLSCAASGRTFSHDHMGWFRQAPGKEREFVAAISWTSSTYYGDSVKGRFTISRSNAKNTVYLQMNSLKPEDTAIYYCSWGVGYWGQGTQVTVSS", "notes": "tested as phage media; also called DT3H3"}},
  "key": {"avidin": {"target": "T1, avidin (UniProt P02701 25-152)", "T1 construct": "Negative-control coat; also called avidin alone", "T1 sequence (P02701 25-152 limits assumed)": "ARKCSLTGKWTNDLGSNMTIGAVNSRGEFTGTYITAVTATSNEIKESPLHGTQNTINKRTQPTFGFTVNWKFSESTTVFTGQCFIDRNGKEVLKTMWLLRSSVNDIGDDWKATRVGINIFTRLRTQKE", "assay": "phage ELISA on avidin coat without biotin-DM1"}, "exatecan conjugated BSA": {"target": "T2, exatecan conjugated BSA (bovine, UniProt P02769 25-607, exatecan conjugated to BSA; chemistry and sites not stated)", "T2 construct": "Hapten-carrier conjugate immobilised on the SPR chip; also called BSA conjugated Exatecan", "T2 sequence (P02769 25-607 limits assumed)": "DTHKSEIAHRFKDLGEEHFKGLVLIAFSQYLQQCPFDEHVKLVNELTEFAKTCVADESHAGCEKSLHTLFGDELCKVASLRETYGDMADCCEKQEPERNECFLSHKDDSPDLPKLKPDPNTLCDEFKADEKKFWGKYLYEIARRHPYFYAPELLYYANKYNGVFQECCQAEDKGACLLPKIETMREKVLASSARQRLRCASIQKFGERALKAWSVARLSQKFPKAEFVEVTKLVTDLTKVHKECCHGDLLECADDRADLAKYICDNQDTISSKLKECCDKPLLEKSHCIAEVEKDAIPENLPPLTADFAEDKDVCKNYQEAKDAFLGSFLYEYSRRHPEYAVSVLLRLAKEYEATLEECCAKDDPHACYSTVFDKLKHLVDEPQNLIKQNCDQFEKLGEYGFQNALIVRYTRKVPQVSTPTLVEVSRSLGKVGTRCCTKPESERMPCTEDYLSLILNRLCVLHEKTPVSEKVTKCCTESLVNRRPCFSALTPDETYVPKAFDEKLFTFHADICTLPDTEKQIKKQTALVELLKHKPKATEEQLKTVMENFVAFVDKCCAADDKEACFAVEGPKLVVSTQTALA", "assay": "SPR, kinetic fit, BSA-conjugated exatecan on the chip"}, "[1]": {"target": "T3, ado-trastuzumab emtansine", "T3 construct": "Antibody-drug conjugate immobilised on a CM5 SPR chip; also called TDM1; T-DM1", "assay": "SPR, kinetic assessment, immobilized T-DM1"}, "[2]": {"target": "T3, ado-trastuzumab emtansine", "assay": "SPR, equilibrium binding, TDM1 on a CM5 chip, 3A2 injected at 1.25-400 nM", "protocol": "(§1) Preliminary screening of DM1/4 binders were performed using a neutravidin SPR chip with DM1-Biotin on the left channel. Phagemid purified sdAbs were flowed over the SPR chip for 2 minutes at a flow rate of 25 ul/min. After binding, sdAb was dissociated for 20 minutes. Observed sensorgrams were fit to an individual dissociation rate constant for each construct. Equilibrium and kinetic binding of 3A2 was assessed using a CM5 SPR chip with TDM1 immobilized on the left channel. […] Rate constants for 3A2-TDM1 association and dissociation were obtained through fitting of the observed sensorgrams for the 1.25, 2.5, 5, 7.5 and 10 nM injections to a 1:1 Langmuir binding model.\n(§2) Anti-DM1/DM4 sdAb DF3A2 clone. […] DNA encoding for 3A2 was synthesized and expressed in the E. coli strain SHuffle and purified using nickel chromatography. Purified 3A2 was used to assess TDM1 binding using SPR. […] To obtain a secondary measure of binding kinetics sdAb injected at concentrations between 1.25-10 nM were fit to a 1:1 Langmuir binding model to obtain association and dissociation rate constants."}, "[3]": {"target": "T3, ado-trastuzumab emtansine", "assay": "SPR, kinetic fit (1:1 Langmuir), TDM1 on a CM5 chip, 3A2 injected at 1.25-10 nM", "protocol": "as §1, §2"}, "[4]": {"target": "T4, Cetuximab-calicheamicin conjugate", "T4 construct": "also called Cetuximab-calicheamcin conjugate; ADC (coated ELISA)", "assay": "competitive ELISA on cetuximab-calicheamicin coated plates, corrected for background", "protocol": "(§3) Nunc Maxisorp 96-well plates were coated with 4 μg/ml Cetuximab or Cetuximab-calicheamicin, or 5 μg/ml Avidin. Plates were washed three times with PBST and three times with dH2O, and blocked with MPBS for 2 h at RT. For the Avidin coated plates, plates were washed three times with PBST and incubated with 1 μM Biotin-Calicheamcin. […] Plates were then washed three times with PBST, where bound sdAb was detected using an anti-His tag HRP-conjugated Ab diluted 1:1000 in MPBST. Following incubated and five washed with PBST, 100 μL of 1-Step Turbo TMB-ELISA solution was added to each well and incubated for 30 minutes. The reaction was quenched by adding 100 μL of Stop solution to each well and absorbance was measured at 450 nm. Alternatively, wells can also be incubated with 1:1000 diluted anti-His tag AP-conjugated Ab, instead of HRP conjugated Ab."}, "cetuximab": {"target": "T5, cetuximab", "T5 construct": "not shown: the constant regions", "assay": "ELISA, purified CG4 on unconjugated cetuximab coat, anti-His HRP detection", "protocol": "as §3"}, "[5]": {"target": "T4, Cetuximab-calicheamicin conjugate", "assay": "competitive ELISA on cetuximab-calicheamicin coated plates, 64 µM CG4 with or without 10 µM free calicheamicin", "protocol": "as §3"}},
  "note": "Positions count from the first letter of the chain named.",
  "data": [
    {"binder": "B1", "values": [
      {"measurement": "binding result", "setting": "avidin", "value": "no binding"}
    ]},
    {"binder": "B2", "values": [
      {"measurement": "binding result", "setting": "avidin", "value": "no binding"}
    ]},
    {"binder": "B3", "values": [
      {"measurement": "Kd", "setting": "exatecan conjugated BSA", "value": 10, "unit": "nM"}
    ]},
    {"binder": "B4", "values": [
      {"measurement": "binding result", "setting": "avidin", "value": "no binding"}
    ]},
    {"binder": "B5", "values": [
      {"measurement": "Kd", "setting": "[1]", "value": 4.33, "unit": "nM"},
      {"measurement": "binding result", "setting": "avidin", "value": "no binding"}
    ]},
    {"binder": "B6", "values": [
      {"measurement": "Kd", "setting": "[1]", "value": 5.59, "unit": "nM"},
      {"measurement": "binding result", "setting": "avidin", "value": "no binding"}
    ]},
    {"binder": "B7", "values": [
      {"measurement": "binding result", "setting": "avidin", "value": "no binding"},
      {"measurement": "Kd", "setting": "[2]", "value": 25, "unit": "nM"},
      {"measurement": "Kd", "setting": "[3]", "value": 12.3, "unit": "nM"}
    ]},
    {"binder": "B8", "values": [
      {"measurement": "fold decrease of ELISA signal on addition of 10 µM free calicheamicin, corrected for background", "setting": "[4]", "value": "~3.3", "unit": "fold"},
      {"measurement": "binding result", "setting": "cetuximab", "value": "binds"},
      {"measurement": "fold decrease of ELISA signal on addition of 10 µM free calicheamicin", "setting": "[5]", "value": 2.5, "unit": "fold"}
    ]},
    {"binder": "B9", "values": [
      {"measurement": "binding result", "setting": "avidin", "value": "no binding"}
    ]}
  ]
}
